One molecule from US11649285B2 can be followed below.

Experiment [1] deals with human VISTA, native (on anti-CD3-activated human T cells and PBMCs) (human (homo sapiens)).
Experiment [2] shares this target. The source holds these as a separate data set.

A value given as a limit tells only on which side of the number the result lay.

B1: Recombinant human VSIG3 Fc Chimera (Fc fusion)
chain: LEVSESPGSIQVARGQTAVLPCTFTTSAALINLNVIWMVTPLSNANQPEQVILYQGGQMFDGAPRFHGRVGFTGTMPATNVSIFINNTQLSDTGTYQCLVNNLPDIGGRNIGVTGLTVLVPPSAPHCQIQGSQDIGSDVILLCSSEEGIPRPTYLWEKLDNTLKLPPTATQDQVQGTVTIRNISALSSGLYQCVASNAIGTSTCLLDLQVISPQPRNIGLIAG
In experiment [1], B1 showed an ED50 of inhibition of MIP-1 alpha secretion, anti-CD3-activated human PBMCs (Quantikine ELISA) of 0.5 µg/mL; an ED50 of inhibition of Rantes secretion, anti-CD3-activated human PBMCs (Quantikine ELISA) of 0.5 µg/mL; a concentration at which inhibition of CXCL11 secretion occurred, anti-CD3-activated human PBMCs (Quantikine ELISA) of 2 µg/mL; a concentration at which inhibition of IL-17 secretion occurred, anti-CD3-activated human PBMCs (Quantikine ELISA) of 10 µg/mL. In experiment [2], the division of CFSE-labeled human CD3+ T cells with plate-bound anti-CD3 and rhVSIG-3 10 µg/mL, flow cytometry (% CD3+ T cells dividing (72 hours)) was less than 25.
